The DeepSol protein solubility set

assay: soluble on expression in E. coli; label from the status in PepcDB or PDB records

Sequence | soluble on expression in E. coli
QGKPREAAQHLEAEASRASGAQRNQLLADAAFAWHEAGDTARAQVLVRQVSVQQLTGESKARFVLLLGELALANRQPVRAFQYFGESSSGLSKKLQIRWLLGRAAALEANGDAFGAAQQRARADQALLGKARNENQAAITRLLAGLDHEVLLTRTAALPVGDPLYHFVGRVLLSRGEALPQPLEGSVQGSVGSSQRPSADTDGYRPPLKLAVLLPLTGSLATAAAPVRDGFLAGYYAETRRRPDLDFFDTGSTPVGAKAAYAKAIAAGADFVVGPLGRDEVSALFSQGQLSIPLLALNRSTGDRVSLPSGSASFSLAPEDDGVIAADYLLAQGQRNVIVIGSNDDVGRRGVQAFMDRFRARGGQVLAALGVADVPGDLGPRLRGADRADAVFLAVRGPTARVLAPQLASLGLSSKPQVGTSQLVLGTGKPEEDTLLDGIVYPTEPWSVQGVKSIPSAADVAVRLPNMRGAALRLFAFGVDAWKLSVYLEGLSAGGAGGGLRGATGTLRLDDSGNVIRIPIWATFRNGQSIPVEML | not soluble
MSLRWEGTEEEAYKAEGTHFSGARRQTLVGRPAGQEAPAFETRYFEVEPGGYTTLERHEHTHVVMVVRGHAEVVLDDRVEPLTPLDCVYIAPHAWHQIHATGANEPLGFLCIVDSDRDREGHHHHHH | not soluble
MAHHHHHHMPSSPFPTLPTRATQHHHHCSHTRVHQICPAVPSLSALSNILTVSAMSAKTAAAPSERSFVDRFVRSHAGAATAAGILEIGFFHPFDTIAKRLMANKGSIMRGSTGET | soluble
MKAERILGALYGQALGDAMGMPSELWPRTRVKAHFGWIDRFLPGPKENNAACYFNRAEFTDDTAMALCLADALLECEGNIDPEIIGRNILAWAERFDAFNKNVLGPTSKIALNAIRDGKPIAALENNGVTNGAAMRVSPLGCLLPPTNLTAFIAEVALASSPTHKSDLAVAGAVVVAWAVSRAVNGDTWQSIADSLPAVAHQAQTARITTFSASLSARLELALNIVRHADGVESASEQLYQIIGAGTSTIESVPCAIAMVELANTDPNRCAVLCANLGGDTDTIGAMATAICGALHGVSAINPQLKQTLDEVNQLDFARYAVALASYRQRREAL | not soluble
MGSDKIHHHHHHMLQQYHTKLKGTLALTDSYLTEKALQKEKGLYKFIWVRQGSITVEIDHQEMVLSKDDVISLTHLQHLEFKSIDGEYMTLLFNSNFYCIYGNDHEVSCSGFLFNGSSHLVRFTLNEEERRQLDQITEAMENEFTVSDSLQEEMLRILLKRFIIQCTRIARQRLDITREKESGFEIVRQYYNLVDEHYRTKKQVQDYADMLHKSPKTLSNIFSTCKLPSPLRVIHERVEAEAKRLLLYSNKSAKEIADILGFEDQASFSRFFKNMTGQSAVQFRNTEVGKN | not soluble
MTETPMMDDLERVLYNQDDIQKRIRELAAELTEFYEDKNPVMICVLTGAVFFYTDLLKHLDFQLEPDYIICSSYSGTKSTGNLTISKDLKTNIEGRHVLVVEDIIDTGLTMYQLLNNLQMRKPASLKVCTLCDKDIGKKAYDVPIDYCGFVVENRYIIGYGFDFHNKYRNLPVIGILKESVYT | soluble
MRYVVGHKNPDTDSIASAIVLAYFLDCYPARLGDINPETEFVLRKFGVMEPELIESAKGKEIILVDHSEKSQSFDDLEEGKLIAIIDHHKVGLTTTEPILYYAKPVGSTATVIAELYFKDAIDLIGGKKKELKPDLAGLLLSAIISDTVLFKSPTTTDLDKEMAKKLAEIAGISNIEEFGMEILKAKSVVGKLKPEEIINMDFKNFDFNGKKVGIGQVEVIDVSEVESKKEDIYKLLEEKLKNEGYDLIVFLITDIMKEGSEALVVGNKEMFEKAFNVKVEGNSVFLEGVMSRKKQVVPPLERAYNG | soluble
MRFVDFFNALLEGKVIGQKCGDCGSYTCPPKATCDNCGSRNLEAVELSGKGVIRTFTTTYVAPSGYTNEAPYTVAMVELDEGPWIVGRIDLPNEEIEKFGQDLIGARVSVYGKEFPTEPFYPDKKRRVVPMFRLEGLEHHHHHH | soluble
GSFTSSGCQEANYGALLRELCLTQFQVDMEAVGETLWCDWGRTIRSYRELADCTWHMAEKLGCFWPNAEVDRFFLAVHGRYFRSCPISGRAVR | soluble
MAHHHHHHMAPQSPSEWDNARRAAKRALTISDEYPPATVERIQKLLQRAETTSNDAVLLSELKSLVQSYFQSPQSLQFLRKERVASKGGGIGVVAARKIPAFSIIGVYPGYLDFMSGEQAKCGRPVPKYALMEYNCANYFNEVFVELQTTFTPFINEPNVDEKSNCAWIQEPHRKNGRLSVICVRDIQEGEELTIGYGPIYPRTYPYCYDAYACHQIEGHTTHPCYSLWHWPTLQEADARFVCHIGYIERDDCYVLWKNET | not soluble
AHHHHHHGSEFFEVLKKRRSIRRFQDKPVPRELIEKLLEAAFLSPSSYNKRPCHFIVVDDREKLEALSKSKLGASGLKTAPVAIVVTADESKSDVWIEDASIAAEHIHLASYALGLASFWVQIRNRMHNETKTAEEYVRELLNIPENYRVLCIIGVGYPAEDKPPHGNEVFEWEKVSYNEFGKRFK | soluble
MRHLRFENLTEEQLKRLAKILTENLKGGEVVILSGNLGAGKTTFVKGMIRAIGLDEKMVKSPTFTLMNVYPGLKTIYHLDLYRLQDTDFLSLDVEDILEDEDGIMVVEWGDLFDGFWPEDSIKVKIEIADESHRNVEILIPEEVNFLVEKIERYRKELQNT | soluble
MSLHLARVDRQWPRPLQPLGNTCSMMLIKQFPDISLNDTLFVFALEAEAGDVFTEVNTVFTGIGKVNAAIALTKAIATRRPKLIVNLGSAGSQRHGKGEIVCCNRFVQRDMDVTALGFARYETPLSDTPVVLEHGAAIPGLAVETCGSGDSFEINHGDAPYDVVDMEAYVLALIARGEGIPFVCLKYISDDAGSEAAGDWAVQVHLAAEAFKRVLFSQAEGHHHHHH | soluble
CYVDTNNDGAYEGDELHMGSLTVKAYLLGKEEAAREIRRFSFCFSPEPEAEAAAGPGPSERLLSRVAVLFPALRPGGFQAHYRAERGDLVAFSSDEELTMAMSYVKDDIFRIYIKEK | soluble
GPGSMSFKPTISVHATPQELSAAGCRKIVEIIETSGSQQWPLSIALAGGSTPKMTYARLHDEHLNLLREKRALRFFMGDERMVPADSTDSNYNMAREVLLHDIPDDLVFPFDTSAVTPSAEATSADAMRVAEAYGKQLASLLPLKSVGEAGAKVPVFDVVLLGLGSDGHTASIFPGSQAEKETDGKVVVSVGFPSETMKPKVWRVTLSPATIMQARNVIVLATGAEKKWVVDGILADTAHKAPVARFLRGCEGNVSFLLDKEIAENLAKF | soluble
MASIDRFQVMQEPELKILEHWFENEDTRRRMDGMLLLDEWYARVNKDKHDTVIMAYDGQLPAGMVVIEFGEERTYIGLIVNPLYRLKGYGKQILQKLMTEPDFTSVREWVACIEEDNRISLACFQAAGFTLEDTEPDEDGFLTLILRNLEHHHHHH | not soluble
GPVDNNNNNGLKNSTEPIYAKVNKKKTGQVASPEEPIYTQVAKKVNAKIDRLNQIASGLGGVGQAAGFPLKRHDKVDDLSKVGLSASPEPIYATIDDLGGPFPLKRHDKVDDLSKVGRSRNQELA | soluble
MSLTKHVAVLLAHGFEEAEAVIFIDIMRRLDIRVDILSCEATTALSTYFETPISADALLSDRLDHHYDAVMMPGGPKGTDSLTANPQVIAFLRRHIAQDKYICALCSSGAKVLAAHHLLAGRTYSTGDKLADKFADGVYLDQDVVVDGKFITAKGLGVSFEFAFTVARHLLSDNLPKVEHQASHIYFKHGSAEGHHHHHH | soluble
MEQPTRPGFATRRRTQLFDALVDLILVEGFAHLTLDEIANRLRCSKSTLYTLAGSKEQLVRAATVHFFRRATDDVESHIEPIAGARERITAYLSAVGTALSAASDQFMADLDAFPPAREVYERNTQFAAGRVQELITEGVAGGDFRDVHAAFAADLAATMMVRIQQRGVRDSTGLDDAHAYAELAAILTGGISA | not soluble
MGSDKIHHHHHHMKELRIDPITNDVVIFATDRLKRPLDTADIPNEDEETNEYDEECPFCKGNEAHATDALFEIDSEEGWLVKSVYNKFPIIDDMARDVYGVHEVMIESDKHNRSFYNMSQKEFEDVFFMYRNRFRDLSKDDKVEYVSIFKNFLRKAGASLMHPHAQILSMSFIPPEITNELLVSKEYYDSNKSSLYDDLIENEISLDRRVVYNGEAFLVLIPYATKYSGEVRIIFKDKIEFGELNDNNIQELSTIFEKLFKKLYNINGYMPFNLCIHTHPTKIETKSYFNVHMHIIPRKYNFGGFELGTNMYVSSMSPEDLTKKLKID | not soluble
MNQEFFMLSQAMVEHLNEQINLEFFSSNLYLQMSAWCEDKGFDGAAEFLRAHAVEEMQHMQRLFTYVSETGALPILGAIAAPRHDFASLGEVFRETYQHEQKITQQINKLAHVAFTSQDYSTFNFLQWYVAEQHEEEKLFKGILDKLELVGEDGKALFFIDKDLAALAKKGSSSVMDAPAE | not soluble
MAINLNTFAKVSADWYELKKSQPLAENTIKDIWRSLEKYVFPFIGTLPITQLTARHFISALEPIQASGKLETVKRVSQRINEVMDYAVNSGLIPANPAAKIRKAFQTPVKTHMLEHHHHHH | not soluble
GPHMADLFGDDIEEIPDTDFDFEGNLALFDKAAVFEEIDTYERR | soluble
MGSDKIHHHHHHMKILIVDDEYRKVEEIFNVLADAGISCAGVKHETTAQAARILLRRQDYDLLIIDLHLPAAIGGKPDNEGGITFLDMIRLDEKVKLPASVLFITGREELIESAYTKVIERGAILCQYHSDSDEWKKILIGRAKYDSQRLARDEQVDVVIVTALRNPELDAVLNLPYQWIQKRIKDDPLTYHYGKIPRIDSNISVVAVSPNRKGMPSSAAVASKLALMFKPKILLMVGICAGIRDKCSLGDIIVADPTWDWGSGKHGLDSNGSPVFHAAPRQVPLNSALSQVASDLANDESVMNGIRKGWSEEVPGGKLKVHIGPMASGASVIADDRSARLIAIQQHRELIAIEMEAYAVMAAAEYTSIPNLTAMIIKSVCDFADAEKNDTWQKYASYTSAAFADQLFRNSNISV | not soluble
MEKVLDLDVQVKANNNSNDSAGDERITSHSLCTPGCAKTGSFNSFCC | not soluble
MEEFTWRVGGPQGGGIETAATLFARAVGKGGWWVATKREYHSNIMGRHSYLDVRLARKPVQAFRERVDFLVALDGETLARHLGEVREGGVVLYDPKVLELTLHKLPMLDHRVAEDLAKRLGQADPSLKEVLQAYAEAGVQPLPYPFEAVADRIGEALGVPSLKARRTLNTIAVAASLHLLSYPLEPLLQALALQFRGEVLELNRKVAEAVYREEAPRLPFRLEVLGPAPGRIYLTGAQAAALGKLAGGLRFQTYYPISPATDESVFLEAHTHLPGADVAVVQTEDEIAAVNMAVGAALAGAKAATATSGPGFSLMAEGLGFAGMIEAPLVVTLYQRGGPSTGLPTRTEQGDLMFAIRGGHGEYPRLVLASGDILDAFLDAQKALAWAWRYQTVVVHLLDKFLASLAQSLPKEALKVLSLDGEKRLSPREGFGPYQRYAPGEDGLSPFIPIGTPGGFYWMTSDEHDPLGHITEDVELRELQMEKRMEKLELARKEIPLEDQYTLFRDGEVLVLGWGTVKGTLLEALDHLEGVGYLHLRLLWPFPRIAPLLEGKTLVTVEHNYSGQLADLVQQETLKRVHHRVVKYNGRPITLEEAVEALKAVREGRAPERLVLRKGV | soluble
